Assay results: patent US20250332297A1, “DLL3-SPECIFIC BINDING CONSTRUCTS AND THEIR USE IN RADIOTHERAPY” (MOLECULAR PARTNERS AG, priority 2024, published 2025)

What was measured:
[1] = biological target: T1, human DLL3 expressed on HEK293T-huDLL3 cells (Homo sapiens, UniProt Q9NYJ7); test: Cell binding titration on HEK293T-hDLL3 cells; type: cell-based; conditions: presence of human serum albumin (10 μM in FIG. 9 legend, 10 pM in the source), read-out: Cell binding EC50, with HSA
T1 construct: expressed in transfected cells; host or cells: HEK293T-hDLL3
T1 sequence (Q9NYJ7 27-618): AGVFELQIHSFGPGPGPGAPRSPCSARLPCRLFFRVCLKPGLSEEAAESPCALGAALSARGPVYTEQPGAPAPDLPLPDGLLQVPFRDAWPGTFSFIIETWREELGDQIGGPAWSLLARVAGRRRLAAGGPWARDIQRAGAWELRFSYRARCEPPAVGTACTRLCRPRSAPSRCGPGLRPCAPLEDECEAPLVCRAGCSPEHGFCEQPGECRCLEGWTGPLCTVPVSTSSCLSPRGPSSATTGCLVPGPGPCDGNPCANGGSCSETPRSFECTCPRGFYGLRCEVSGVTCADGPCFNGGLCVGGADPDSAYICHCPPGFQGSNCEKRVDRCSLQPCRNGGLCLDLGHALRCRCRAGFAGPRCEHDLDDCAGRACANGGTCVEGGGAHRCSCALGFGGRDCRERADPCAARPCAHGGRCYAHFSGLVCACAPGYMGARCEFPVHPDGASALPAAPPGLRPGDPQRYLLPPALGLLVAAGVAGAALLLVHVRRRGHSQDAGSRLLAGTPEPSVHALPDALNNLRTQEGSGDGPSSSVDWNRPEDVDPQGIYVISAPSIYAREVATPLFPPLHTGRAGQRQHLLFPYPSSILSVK

[2] = Thermal stability by Circular Dichroism (CD) spectroscopy; type: physicochemical; conditions: CD at 222 nm, 20° C. to 90° C., 2 μM in PBS pH7.4; DARPins with C-terminal Cysteine-containing tag (SEQ ID NOs: 15, 16, 18)
Method: Labelling of proteins conjugated to a chelator with a radionuclide may require harsh conditions, including high temperatures. The thermal stability and the propensity to unfold/refold of 2D DARPins MAM279, MAM283 and MAM282 were assessed using Circular Dichroism (CD) spectroscopy.
Samples of the DARPins were diluted to 2 μM in PBS, pH7.4. The assessment was done using a Jasco J-815 spectrophotometer. The Tm (melting temperature) of the selected proteins was determined by CD as a parameter for thermal stability. In brief, the ellipticity was recorded at […] and a temperature range from 20° C. to 90° C. was applied followed by reverse scan to record the refolding behavior. The Tm of the selected ankyrin repeat protein constructs is the midpoint of the protein unfolding. Spectra from 190-250 nm were recorded before and after the temperature scan.

[3] = Pharmacokinetic analysis in WT BALBc mice (serum, ELISA); type: in vivo, mouse
Excerpt: The pharmacokinetic (PK) properties of lead-labelled DARPin (MAM160, MAM279, MAM282, MAM283) conjugates were investigated in mice, including to determine the terminal half-life (or serum half-life) of these conjugates.
In brief, DARPins MAM279, MAM283, MAM160 and MAM282 were conjugated to the chelator DOTAM, via a C-terminal Cysteine containing tag and a connector, as described in Example 3. The conjugates were then labelled with natural lead (Pb). The protein components of the conjugates corresponded to SEQ ID NOs: 15 to 18, respectively. These lead-labelled DARPin conjugates were injected i.v. at 1 mg/kg into WT BALBc mice. Serum was collected 2 min, 10 min, 30 min, 1 h, 4 h, 24 h, 48 h, and 72 h post-injection. DARPins were detected and measured by ELISA. The data were expressed as the DARPin concentration in serum (nmol/L).
In brief, lead-labelled MAM279 conjugate, as described in Example 13, was injected i. at 0.1 mg/kg or at 1 mg/kg into the tail vein of WT BALBc mice. Serum was collected 2 min, 10 min, 30 min, 1 h, 4 h, 24 h, 48 h, and 72 h post-injection for MAM279 conjugate injected at 1 mg/kg, and 2 min, 30 min, 4 h, 24 h, 30 h, 48 h, 72 h, 96 h, and 168 h post-injection for MAM279 conjugate injected at 0.1 mg/kg. DARPins were detected and measured by ELISA. The data were expressed as the DARPin concentration in serum (nmol/L).
In brief, natural lead-labelled MAM279 conjugate, as described in Example 13, was injected i.v. at different doses (0.001 mg/kg, 0.01 mg/kg, 0.1 mg/kg, or 1 mg/kg) into the tail vein of WT BALBc mice. Similarly, unconjugated Rova was injected iv. at 1 mg/kg into the tail vein of WT BALBc mice. Serum was collected 2 min, 10 min, 30 min, 1 h, 4 h, 24 h, 48 h, and 72 h post-injection for MAM279 conjugate injected at 1 mg/kg, and 2 min, 30 min, 4 h, 24 h, 30 h, 48 h, 72 h, 96 h, and 168 h post-injection for MAM279 conjugate injected at 0.1 mg/kg, 0.01 mg/kg and 0.001 mg/kg. Serum was collected 2 min, 30 min, 4 h, 24 h, 30 h, 48 h, 72 h, 96 h, and 168 h post-injection for Rova antibody injected at 1 mg/kg. DARPins and Rova were detected and measured by ELISA. Rova PK characteristics were calculated with time points between 4 h and 168 h and MAM279 conjugate PK characteristics were calculated with time points between 4 h and 72 h. The data were expressed as the DARPin or Rova concentration in serum (nmol/L). Results are shown in FIGS. 19A and 19B and Table 22.

human serum albumin = human serum albumin (Homo sapiens, UniProt P02768); test: SPR binding to human serum albumin (Example 1); parameters: purchased CSL; conditions: immobilized HSA, 1:1 Langmuir, Table 2
Method: Similarly, a SPR assay was used to determine the binding kinetics to human or mouse serum albumin. […] All analytes (3-fold dilution ranging from 1000-12.35 nM) were injected in succession for 240 s (25 μl/min) and dissociation was recorded for 600 s (25 μl/min). […] The obtained SPR traces were used to determine the ankyrin repeat protein-serum albumin interaction parameters, summarized in Table 2.

[4] = 1 mg/kg i.v., MAM279 natural lead-labelled conjugate (time points 4-72 h), Rova unconjugated (4-168 h), Table 22
[5] = 1 mg/kg i.v., MAM279 natural lead-labelled conjugate, Rova unconjugated, Table 22
[6] = natural lead-labelled DOTAM conjugate 0.1 mg/kg i.v., Table 17
[7] = natural lead-labelled DOTAM conjugate 1 mg/kg i.v., Tables 16, 17
[8] = natural lead-labelled conjugate 0.001 mg/kg i.v., Table 22
[9] = natural lead-labelled conjugate 0.01 mg/kg i.v., Table 22
[10] = natural lead-labelled conjugate 0.1 mg/kg i.v., Table 22

B1: MAM279: Two domain (2D) ankyrin repeat protein: serum albumin-specific domain (SEQ ID NO: 7), PT linker, DLL3-specific domain of MAM093 (protein)
chain: DLGKKLLEAARAGQDDEVRELLKAGADVNAKDYFSHTPLHLAARNGHLKIVEVLLKAGADVNAKDFAGKTPLHLAADAGHLEIVEVLLKAGADVNAQDIFGKTPADIAADAGHEDIAEVLQKAAGSPTPTPTTPTPTPTTPTPTPTGSDLGKKLLAAAAQGQDDEVRELLKAGANVNAKDLFGYTPLHLAAWRGHLEIVEVLLKAGADVNAKDAAGETPLHLAAWFGHLEIVEVLLKAGADVNAQDLQGKTPADLAAKEGHEDIAEVLQKAA
modifications: Ankyrin repeat protein (MAM279)
EC50 [1]: 16.3 nM | melting temperature (Tm) [2]: above 85 °C | AUCINF_pre [3, 4]: 29.3837 µM·h | AUClast [3, 4]: 23892.0 h*hr*nmol/L | HL_Lambda_z [3, 4]: 30.5 h | AUC_%Back_Ext_pre [3, 5]: 0% | AUC_%Extrap_Pred [3, 5]: 19% | Cl_pred [3, 5]: 1.2 mL/h/kg | Cmax [3, 5]: 1330 nM | Tmax [3, 5]: 1.98 min | Vss_pred [3, 5]: 0.048 L/kg | AUCINF_pred [3, 6]: 2.4051 µM·h | AUC_% Back_Ext_pred [3, 6]: 0% | AUC_% Extrap_pred [3, 6]: 3% | AUClast [3, 6]: 2343.4 nmol·h/L | CI_pred [3, 6]: 1.4 mL/h/kg | Cmax [3, 6]: 88.3 nM | HL_Lambda_z [3, 6]: 32.8 h | Tmax [3, 6]: 1.98 min | Vss_pred [3, 6]: 0.066 L/kg | AUCINF_pred [3, 7]: 29.3837 µM·h | AUC_% Back_Ext_pred [3, 7]: 0% | AUC_% Extrap_pred [3, 7]: 19% | AUClast [3, 7]: 23892.0 nmol·h/L | CI_pred [3, 7]: 1.2 mL/h/kg | Cmax [3, 7]: 1330 nM | HL_Lambda_z [3, 7]: 30.5 h | Tmax [3, 7]: 1.98 min | Vss_pred [3, 7]: 0.048 L/kg | AUCINF_pre [3, 8]: 0.007 µM·h | AUC_%Back_Ext_pre [3, 8]: 0% | AUC_%Extrap_Pred [3, 8]: 28% | AUClast [3, 8]: 5.0 h*hr*nmol/L | Cl_pred [3, 8]: 4.9 mL/h/kg | Cmax [3, 8]: 0.29 nM | HL_Lambda_z [3, 8]: 39.9 h | Tmax [3, 8]: 1.98 min | Vss_pred [3, 8]: 0.267 L/kg | AUCINF_pre [3, 9]: 0.101 µM·h | AUC_%Back_Ext_pre [3, 9]: 0% | AUC_%Extrap_Pred [3, 9]: 3% | AUClast [3, 9]: 98.3 h*hr*nmol/L | Cl_pred [3, 9]: 3.4 mL/h/kg | Cmax [3, 9]: 3.7 nM | HL_Lambda_z [3, 9]: 33.1 h | Tmax [3, 9]: 1.98 min | Vss_pred [3, 9]: 0.157 L/kg | AUCINF_pre [3, 10]: 2.4051 µM·h | AUC_%Back_Ext_pre [3, 10]: 0% | AUC_%Extrap_Pred [3, 10]: 3% | AUClast [3, 10]: 2343.4 h*hr*nmol/L | Cl_pred [3, 10]: 1.4 mL/h/kg | Cmax [3, 10]: 88.3 nM | HL_Lambda_z [3, 10]: 32.8 h | Tmax [3, 10]: 1.98 min | Vss_pred [3, 10]: 0.066 L/kg | Kd (human serum albumin): 75 nM | Koff HSA (human serum albumin): 0.00923 s⁻¹ | Kon HSA (human serum albumin): 123000 M⁻¹ s⁻¹

B2: MAM283: Two domain (2D) ankyrin repeat protein: serum albumin-specific domain (SEQ ID NO: 7), PT linker, DLL3-specific domain (SEQ ID NO: 3) (protein)
chain: DLGKKLLEAARAGQDDEVRELLKAGADVNAKDYFSHTPLHLAARNGHLKIVEVLLKAGADVNAKDFAGKTPLHLAADAGHLEIVEVLLKAGADVNAQDIFGKTPADIAADAGHEDIAEVLQKAAGSPTPTPTTPTPTPTTPTPTPTGSDLGKKLLAAAADGQDDEVRELLQAGADVNAKDLFGYTPLHLAAWRGHLEIVEVLLEAGADVNAKDAAGETPLHLAAWFGHLEIVEVLLEAGADVNAQDVQGKTPADLAAKEGHEDIAEVLQQAA
modifications: Ankyrin repeat protein (MAM283)
EC50 [1]: 18.4 nM | melting temperature (Tm) [2]: about 82 °C | AUCINF_pred [3, 7]: 14.4943 µM·h | AUC_% Back_Ext_pred [3, 7]: 0% | AUC_% Extrap_pred [3, 7]: 2% | AUClast [3, 7]: 14243.6 nmol·h/L | CI_pred [3, 7]: 2.3 mL/h/kg | Cmax [3, 7]: 1440 nM | HL_Lambda_z [3, 7]: 12.7 h | Tmax [3, 7]: 1.98 min | Vss_pred [3, 7]: 0.035 L/kg | Kd (human serum albumin): 103 nM | Koff HSA (human serum albumin): 0.00924 s⁻¹ | Kon HSA (human serum albumin): 89500 M⁻¹ s⁻¹
